Holding throughout (details): both partners purified
Test [1] addresses T1, recombinant Mycobacterium tuberculosis rEspB (Mycobacterium tuberculosis H37Rv, UniProt P9WJD9 1-460).
T1 construct: also called pHis-espB product
Description: far-Western, overlay or dot blot; recombinant Mtb proteins separated by reducing SDS-PAGE (12% gel), transferred to nitrocellulose, incubated 2 h at room temperature with biotin-labeled SAA1 at 10 µg/mL in PBS/0.05% Tween 20/0.1% BSA; streptavidin-peroxidase detection.

In test [2] the target is T2, recombinant Mycobacterium tuberculosis rThiC (Mycobacterium tuberculosis H37Rv, UniProt P9WG79 1-547).
T2 construct: also called pHis-thiC product
The test is described as above.

The target of test [3] is T3, recombinant Mycobacterium tuberculosis rAtpA (Mycobacterium tuberculosis H37Rv, UniProt P9WPU7 1-549).
T3 construct: also called pHis-atpA product
Described as above.

Test [4] has as its target T4, recombinant Mycobacterium tuberculosis rTB18.6 (Mycobacterium tuberculosis H37Rv, UniProt P9WFN1 1-176).
T4 construct: also called pHis-tb18.6 product
T4 sequence: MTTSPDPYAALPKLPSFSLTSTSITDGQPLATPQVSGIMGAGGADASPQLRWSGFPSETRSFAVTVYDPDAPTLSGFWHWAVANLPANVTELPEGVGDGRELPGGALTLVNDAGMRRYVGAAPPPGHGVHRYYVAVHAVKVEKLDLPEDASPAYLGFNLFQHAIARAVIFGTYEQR
Described as above.

The target in test [5] is T1, recombinant Mycobacterium tuberculosis …. Nature of the test: SPR; Biacore X, CM5 chip; human SAA1 amine-coupled (7850 RU), BSA chip as control and blank; native recombinant Mtb proteins as analytes; 22-25 °C; HBS-EP pH 7.4 (0.01 M HEPES, 0.15 M NaCl, 3 mM EDTA, 0.005% P20); flow 5 or 20 µL/min; global fit, Langmuir 1:1 with drifting baseline. Background: In SPR one partner is held on a chip, and binding of the other changes the refractive index at the surface.

Test [6] has as its target T5, recombinant Mycobacterium tuberculosis rABC (Mycobacterium tuberculosis H37Rv, UniProt P9WQK3 1-558).
T5 construct: also called rABC transporter; pHis-abc product
T5 sequence: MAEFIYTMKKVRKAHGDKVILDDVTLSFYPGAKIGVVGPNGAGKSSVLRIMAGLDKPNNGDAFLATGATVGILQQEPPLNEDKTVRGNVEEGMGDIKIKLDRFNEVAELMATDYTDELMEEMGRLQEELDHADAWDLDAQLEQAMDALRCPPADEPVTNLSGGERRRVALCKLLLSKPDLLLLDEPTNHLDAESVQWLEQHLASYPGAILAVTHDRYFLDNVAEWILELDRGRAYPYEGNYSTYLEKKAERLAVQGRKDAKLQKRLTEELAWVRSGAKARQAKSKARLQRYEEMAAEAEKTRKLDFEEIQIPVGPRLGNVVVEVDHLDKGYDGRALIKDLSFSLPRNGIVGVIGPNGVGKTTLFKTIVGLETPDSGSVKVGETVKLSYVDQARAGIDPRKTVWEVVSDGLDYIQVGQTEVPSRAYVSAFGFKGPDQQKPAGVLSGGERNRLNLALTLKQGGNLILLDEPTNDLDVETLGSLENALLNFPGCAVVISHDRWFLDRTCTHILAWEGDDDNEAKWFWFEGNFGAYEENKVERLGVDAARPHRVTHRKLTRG
The test is described as above.

In test [7] the target is T2, recombinant Mycobacterium tuberculosis …. The description is as above.
In test [8] the target is T3, recombinant Mycobacterium tuberculosis …. The description is as above.
Test [9] deals with T4, recombinant Mycobacterium tuberculosis …. The test is described as above.

T3 sequence (P9WPU7 whole entry): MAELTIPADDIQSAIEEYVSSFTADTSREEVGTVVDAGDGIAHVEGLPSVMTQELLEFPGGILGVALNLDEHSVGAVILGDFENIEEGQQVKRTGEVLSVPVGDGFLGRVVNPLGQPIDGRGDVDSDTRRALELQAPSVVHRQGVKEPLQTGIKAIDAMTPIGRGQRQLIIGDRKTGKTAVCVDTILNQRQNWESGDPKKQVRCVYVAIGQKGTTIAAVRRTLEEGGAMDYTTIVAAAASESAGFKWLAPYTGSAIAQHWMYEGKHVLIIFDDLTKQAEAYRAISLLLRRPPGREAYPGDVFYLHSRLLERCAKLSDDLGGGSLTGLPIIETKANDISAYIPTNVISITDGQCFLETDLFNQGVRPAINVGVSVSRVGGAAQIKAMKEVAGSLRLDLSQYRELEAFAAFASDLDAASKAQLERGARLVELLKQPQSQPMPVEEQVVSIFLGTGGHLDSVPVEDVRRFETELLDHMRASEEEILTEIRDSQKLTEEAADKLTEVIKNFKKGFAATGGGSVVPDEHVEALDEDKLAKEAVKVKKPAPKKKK
T2 sequence (P9WG79 whole entry): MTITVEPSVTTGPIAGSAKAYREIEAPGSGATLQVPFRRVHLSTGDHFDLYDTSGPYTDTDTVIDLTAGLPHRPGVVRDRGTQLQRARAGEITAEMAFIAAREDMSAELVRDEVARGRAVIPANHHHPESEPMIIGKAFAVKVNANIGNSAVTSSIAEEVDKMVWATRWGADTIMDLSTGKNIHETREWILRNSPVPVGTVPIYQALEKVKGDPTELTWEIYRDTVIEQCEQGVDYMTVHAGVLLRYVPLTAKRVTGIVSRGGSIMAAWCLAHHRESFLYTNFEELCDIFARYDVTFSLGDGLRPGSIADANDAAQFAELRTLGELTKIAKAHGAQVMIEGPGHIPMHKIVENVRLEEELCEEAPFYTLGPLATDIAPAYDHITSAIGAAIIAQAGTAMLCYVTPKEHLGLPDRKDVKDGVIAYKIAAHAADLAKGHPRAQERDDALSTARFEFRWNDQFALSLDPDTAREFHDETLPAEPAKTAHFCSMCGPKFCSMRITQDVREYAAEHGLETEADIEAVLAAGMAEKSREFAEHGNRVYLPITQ
T1 sequence (P9WJD9 whole entry): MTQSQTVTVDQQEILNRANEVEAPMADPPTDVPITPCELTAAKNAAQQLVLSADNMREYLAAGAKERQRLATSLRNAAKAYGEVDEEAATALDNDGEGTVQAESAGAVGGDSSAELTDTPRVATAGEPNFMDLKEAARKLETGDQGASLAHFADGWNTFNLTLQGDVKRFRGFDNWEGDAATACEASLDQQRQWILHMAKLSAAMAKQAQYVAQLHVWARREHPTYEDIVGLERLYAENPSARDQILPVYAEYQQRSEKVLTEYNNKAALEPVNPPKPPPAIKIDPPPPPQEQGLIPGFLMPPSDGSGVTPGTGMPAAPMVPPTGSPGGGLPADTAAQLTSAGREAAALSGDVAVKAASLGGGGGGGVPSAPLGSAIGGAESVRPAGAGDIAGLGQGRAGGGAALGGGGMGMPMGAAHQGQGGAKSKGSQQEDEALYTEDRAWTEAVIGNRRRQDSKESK

B1: biotin-labeled recombinant human SAA1 (natural protein, UniProt P0DJI8 19-122, looked up)
chain: RSFFSFLGEAFDGARDMWRAYSDMREANYIGSDKYFHARGNYDAAKRGPGGAWAAEVITDARENIQRFFGHGAEDSLADQAANEWGRSGKDPNHFRPAGLPEKY
modifications: biotin (Sulfo-NHS-biotin labeling; sites not stated)
notes: serum amyloid A1 (SAA1), human, recombinant, bought from Sigma Aldrich; Same bought protein as m1, biotinylated; detected with streptavidin-HRP; also called biotinylated SAA1; biotin-labeled human SAA1; source: bought: Sigma Aldrich (recombinant), labeled with EZ-Link Micro Sulfo-NHS-Biotinylation Kit
Regarding B1, the binding result in [1], in test [2], in test [3] and in test [4] was “binds” throughout.

B2: recombinant human serum amyloid A (SAA1) (natural protein, UniProt P0DJI8 19-122, looked up)
chain: B1 chain
notes: serum amyloid A1 (SAA1), human, recombinant, bought from Sigma Aldrich; also called human SAA1; human acute phase protein; source: bought: Sigma Aldrich (recombinant)
B2: the Kd – broadly, the concentration at which binding is half-saturated – in test [5] amounted to 5.06 µM; in test [6] it was 11.3 µM; in test [7], 7.53 µM; in test [8], 0.194 µM; in [9] it was 8.5 µM.
